Results reported in article PMC7469494 (Autophagy, 2019).

Tests used:
Vac8[40–515] = target: T1, Vac8[40–515] (S. cerevisiae, UniProt P39968 40-515); assay: SEC
T1 sequence (looked up): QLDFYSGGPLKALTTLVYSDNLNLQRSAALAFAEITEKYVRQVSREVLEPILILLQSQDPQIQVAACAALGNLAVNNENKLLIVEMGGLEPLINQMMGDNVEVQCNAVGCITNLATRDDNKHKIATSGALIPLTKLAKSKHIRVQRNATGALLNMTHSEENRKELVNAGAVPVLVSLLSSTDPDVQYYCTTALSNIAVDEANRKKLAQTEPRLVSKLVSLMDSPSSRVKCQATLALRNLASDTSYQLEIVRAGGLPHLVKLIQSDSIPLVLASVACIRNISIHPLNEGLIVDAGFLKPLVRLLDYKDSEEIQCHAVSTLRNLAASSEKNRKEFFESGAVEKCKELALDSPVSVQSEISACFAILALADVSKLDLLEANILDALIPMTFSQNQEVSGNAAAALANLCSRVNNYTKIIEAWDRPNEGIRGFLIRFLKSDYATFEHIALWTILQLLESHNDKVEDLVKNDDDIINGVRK

full-length Vac8 = target: T2, full-length Vac8 (S. cerevisiae, UniProt P39968 1-578); assay: ITC
T2 sequence (looked up): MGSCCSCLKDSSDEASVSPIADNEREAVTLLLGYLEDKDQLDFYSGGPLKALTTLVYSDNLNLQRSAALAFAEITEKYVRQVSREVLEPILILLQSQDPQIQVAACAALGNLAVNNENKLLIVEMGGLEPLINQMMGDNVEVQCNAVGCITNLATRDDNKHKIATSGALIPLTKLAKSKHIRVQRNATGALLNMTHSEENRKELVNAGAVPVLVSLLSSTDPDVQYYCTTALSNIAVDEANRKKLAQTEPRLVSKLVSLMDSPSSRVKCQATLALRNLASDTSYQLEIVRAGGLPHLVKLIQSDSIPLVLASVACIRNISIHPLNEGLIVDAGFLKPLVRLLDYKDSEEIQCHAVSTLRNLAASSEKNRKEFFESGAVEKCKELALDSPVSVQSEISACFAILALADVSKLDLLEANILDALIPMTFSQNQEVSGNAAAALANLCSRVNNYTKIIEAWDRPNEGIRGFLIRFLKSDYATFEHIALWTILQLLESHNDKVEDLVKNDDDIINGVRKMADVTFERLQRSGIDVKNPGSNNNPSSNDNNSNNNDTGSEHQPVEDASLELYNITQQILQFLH

[1] = target: T3, Vac8[Δ19–33] (full-length Vac8 lacking the H1 helix, residues 19–33) (S. cerevisiae, UniProt P39968 1-578, Δ19–33); assay: ITC
T3 sequence (looked up): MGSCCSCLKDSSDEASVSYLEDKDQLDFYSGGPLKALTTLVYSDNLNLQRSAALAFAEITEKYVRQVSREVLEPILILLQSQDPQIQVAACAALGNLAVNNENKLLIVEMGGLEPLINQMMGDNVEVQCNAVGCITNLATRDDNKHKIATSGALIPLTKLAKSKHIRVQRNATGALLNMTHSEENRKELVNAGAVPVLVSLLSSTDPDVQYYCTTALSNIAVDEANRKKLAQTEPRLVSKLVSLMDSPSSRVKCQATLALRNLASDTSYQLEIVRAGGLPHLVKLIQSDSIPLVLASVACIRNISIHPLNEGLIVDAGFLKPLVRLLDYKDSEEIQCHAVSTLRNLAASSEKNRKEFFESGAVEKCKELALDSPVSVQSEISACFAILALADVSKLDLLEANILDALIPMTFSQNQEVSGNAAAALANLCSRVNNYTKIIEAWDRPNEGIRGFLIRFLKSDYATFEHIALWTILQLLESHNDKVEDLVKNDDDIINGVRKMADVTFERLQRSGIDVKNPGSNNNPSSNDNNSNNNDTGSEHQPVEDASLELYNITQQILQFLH

[2] = target: T4, tVac8 (Vac8 construct comprising residues 10–515) (S. cerevisiae, UniProt P39968 10-515); assay: AUC
T4 sequence (looked up): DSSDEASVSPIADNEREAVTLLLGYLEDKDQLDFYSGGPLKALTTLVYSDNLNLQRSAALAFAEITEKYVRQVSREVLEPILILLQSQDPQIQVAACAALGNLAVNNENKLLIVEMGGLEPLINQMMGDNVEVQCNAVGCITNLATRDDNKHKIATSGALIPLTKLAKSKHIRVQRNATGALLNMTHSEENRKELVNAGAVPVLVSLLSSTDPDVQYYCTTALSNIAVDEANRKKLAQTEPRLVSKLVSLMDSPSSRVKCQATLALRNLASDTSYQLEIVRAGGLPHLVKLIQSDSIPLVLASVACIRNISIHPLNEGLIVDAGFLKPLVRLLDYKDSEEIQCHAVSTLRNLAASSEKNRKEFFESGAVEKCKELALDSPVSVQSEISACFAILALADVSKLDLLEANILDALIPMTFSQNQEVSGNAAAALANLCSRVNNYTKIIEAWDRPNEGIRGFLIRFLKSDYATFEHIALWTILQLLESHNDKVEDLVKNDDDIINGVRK

binding result (Vac8[40–515]): binds
binding result (full-length Vac8): binds
Kd [1]: 1460 nM
binding result [2]: binds
B1: tAtg13 (Atg13 construct comprising residues 567–695) (domain or fragment, S. cerevisiae, UniProt Q06628 567-695, looked up)
chain: GGNSSTSALNSRRNSLDKSSNKQGMSGLPPIFGGESTSYHHDNKIQKYNQLGVEEDDDDENDRLLNQMGNSATKFKSSISPRSIDSISSSFIKSRIPIRQPYHYSQPTTAPFQAQAKFHKPANKLIDNG
